These results are taken from patent publication US20240368239A1, “Novel bispecific protein and use thereof” (SL METAGEN, priority 2020, published 2024).

Entries after “also recorded” stand apart in the source; their conditions may differ.

The nature of data set [1]: In vivo pharmacokinetics profile after subcutaneous administration (GLP-1-Fc ELISA and GLP-2-Fc ELISA). As to conditions: rat, 1 mg/kg SC. The arrangement: species or system male SD (Sprague Dawley) rats. On the procedure: First, each protein was administered to 3 male SD (Sprague Dawley) rats per group at a dose of 1 mg/kg by subcutaneous (SC) route. Before injection and after 0.5, 1, 5, 10, 24, 48, 72, 120, and 168 hours after the injection, blood was collected and stored at room temperature for 30 minutes to aggregate. After centrifuging the aggregated blood at 3,000 rpm for 10 minutes, serum of each sample was collected and stored in a cryogenic freezer. Analyses were performed by an assay designed to specifically detect the GLP-1 site and Fc in the administered protein (GLP-1-Fc ELISA) and an assay designed to specifically detect the GLP-2 site and Fc in the administered protein (GLP-2-Fc ELISA). Specifically, a method of loading a biological sample on a plate coated with an antibody that binds to mouse-derived human immunoglobulin G4 (IgG4) to detect the target protein using a biotinylated anti-GLP-1 antibody (GLP-1-Fc ELISA), and a method of loading a biological sample on a plate coated with a monoclonal antibody that specifically reacts with GLP-2, to detect the target protein using a secondary antibody having HRP conjugated to mouse-derived human immunoglobulin G4 (IgG4) (GLP-2-Fc ELISA) were used. The obtained and prepared serum samples were loaded with appropriate dilutions to be analyzed at a position on a straight line of the standard curve.

For data set [2], the system named is B6 normal mice. Nature of the data set: Small intestine weight and body weight (GLP-1-Fc homodimer, GLP-2-Fc homodimer, MG12-1, MG12-4). In kind it is in vivo. As to conditions: SC twice a week, 4 doses; homodimers 10 nmol/kg, MG12 20 nmol/kg. An excerpt: In addition, the present inventors conducted the same experiment as above while only varying the administered substance, in order to confirm whether the bispecific fusion proteins (MG12-1 and MG12-4) designed in a form other than MG12-5 also increase the small intestine weight and energy absorption rate of experimental animals. Specifically, PBS, 10 nmol/kg GLP-1-Fc homodimer, 10 nmol/kg GLP-2-Fc homodimer, 20 nmol/kg MG12-1, and 20 nmol/kg MG12-4 were subcutaneously administered. The drug was administered twice a week for a total of 4 times for 2 weeks. After 4 doses, the body weight was measured before autopsy, and the small intestine was excised after the autopsy and weighed. After the autopsy, the entire gastrointestinal tract of the mouse was separated, the mesentery and the pancreas were excised, and the area where the ileum and the cecum meet was cut to separate the small intestine and the large intestine. The separated small intestine was perfused and washed with 10% neutral formalin to remove the contents, and was weighed after removing the neutral formalin with an absorbent towel.

The test system of data set [3] is B6 normal mice. Nature of the data set: Fluorescence spectrometry tissue distribution of Cy5.5-labelled substances. In kind it is in vivo. The protocol: Next, the present inventors performed an experiment in B6 normal mice in order to observe the distribution in each tissue and organ according to the administration of a bispecific fusion protein according to an embodiment of the present invention. Cy5.5 was used as a fluorophore for tracking the distribution after administration of each substance. Buffer exchange was performed for each substance to be administered, MG12-1, MG12-4, and GLP-1Fc homodimer with boric acid buffer (pH 8.5), and with reference to the protocol of the Cy5.5 labeling kit (GE, #PA15605) were allowed to react with an appropriate amount of Cy5.5 overnight under refrigeration conditions. Unreacted Cy5.5 in the reaction-completed substance was removed through the PBS substitution process, and whether Cy5.5 was reacted well was confirmed through the final SDS-PAGE. Each administered substance was diluted with 10% DMSO/PBS to have the same fluorescence intensity using an ELISA plate reader capable of measuring fluorescence intensity before being administered.

A further data set deals with Balb/c-nude mice. The data set is described as follows: PET-MRI tissue distribution of Zr89-labelled proteins. The data set is classed as in vivo. As to conditions: Zr89 label, SC. An excerpt: Next, the present inventors performed an experiment in Balb/c-nude mice in order to observe the distribution in each tissue organ following the administration of a substance. Zr^89 was used as a radiotracer for tracking the distribution after administration of each substance. Each substance to be administered was labeled with Zr^89 as a reaction condition and a chelator selected through a preliminary test. The labeled Zr^89-protein was purified using a PD-10 column, and Zr^89 labeling efficiency and purity were confirmed using Radio TLC and SEC-HPLC. The labeling efficiency of the Zr^89-protein of 90% or more and the purity of 80% or more were determined to be appropriate, and the labeled protein was administered subcutaneously at 0.2 mCi/0.2 cc. Each administration substance was administered to three animals and static images for 20 minutes were obtained using PET-MRI at 1 hour, 6 hours, 24 hours, 48 hours, and 168 hours after injection. Through image analysis, the distribution of drugs as a function of time in the liver, small intestine, and large intestine was expressed as SUV (Standardized Uptake Value) and comparatively analyzed.

The next data set addresses GLP-1 receptor (Homo sapiens, UniProt P43220). As to conditions: GLP-1 activity.
Where [4] appears, read: 24 hours after administration, Cy5.5 label.

GLP-1 receptor, sequence (P43220 24-463, species assumed): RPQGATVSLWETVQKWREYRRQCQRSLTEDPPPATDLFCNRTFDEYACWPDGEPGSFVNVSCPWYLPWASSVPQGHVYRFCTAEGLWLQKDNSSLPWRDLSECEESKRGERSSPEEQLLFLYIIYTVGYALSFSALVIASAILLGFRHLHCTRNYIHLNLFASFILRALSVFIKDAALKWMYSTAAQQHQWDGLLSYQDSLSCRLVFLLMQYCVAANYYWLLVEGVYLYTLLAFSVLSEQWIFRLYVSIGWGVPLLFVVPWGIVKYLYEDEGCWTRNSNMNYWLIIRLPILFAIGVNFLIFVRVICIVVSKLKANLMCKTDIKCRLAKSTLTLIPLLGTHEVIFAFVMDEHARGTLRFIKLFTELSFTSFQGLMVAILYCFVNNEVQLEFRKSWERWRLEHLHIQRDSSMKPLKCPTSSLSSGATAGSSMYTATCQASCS
Experimental for GLP-1 receptor: After culturing the cells in a 37° C., 5% CO2 incubator for about 16 hours, the cells were treated with 20 μL/well of a test solution of various concentrations to be evaluated and allowed to react in a 37° C., 5% CO2 incubator for 5 hours. After the reaction was complete, the plate was treated with Bright-Glo™ assay reagent at 100 μL/well, and then was allowed react at room temperature for 2 minutes. After the reaction was completed, the plate was inserted into a Luminometer and the degree of bioluminescence was measured.

B1: MG12-1: Knob/hole Fc heterodimer: GLP-1 (SEQ 1), glycan linker, first fusion protein SEQ 24; GLP-2 (SEQ 17), second fusion protein SEQ 32 (protein)
chain 1: HGEGTFTSDVSSYLEGQAAKEFIAWLVKGRGGGGGSGGGGSGGGGSAKNTTAPATTRNTTRGGEEKKKEKEKEEQEERTHTCPPCPSHTQPLGVFLFPPKPKDTLMISRTPEVTCVVVDVSQEDPEVQFNWYVDGVEVHNAKTKPREEQFNSTYRVVSVLTVLHQDWLNGKEYKCKVSNKGLPSSIEKTISKAKGQPREPQVYTLPPCQEEMTKNQVSLWCLVKGFYPSDIAVEWESNGQPENNYKTTPPVLDSDGSFFLYSRLTVDKSRWQEGNVFSCSVMHEALHNHYTQKSLSLSLGK
chain 2: HGDGSFSDEMNTILDNLAARDFINWLIQTKITDGGGGSGGGGSGGGGSEKEKEEQEERTHTCPPCPSHTQPLGVFLFPPKPKDTLMISRTPEVTCVVVDVSQEDPEVQFNWYVDGVEVHNAKTKPREEQFNSTYRVVSVLTVLHQDWLNGKEYKCKVSNKGLPSSIEKTISKAKGQPREPQVCTLPPSQEEMTKNQVSLSCAVKGFYPSDIAVEWESNGQPENNYKTTPPVLDSDGSFFLVSRLTVDKSRWQEGNVFSCSVMHEALHNHYTQKSLSLSLGK
For the molecule B1, in data set [1] (GLP-1-Fc ELISA (Table 5)), the AUClast amounted to 13919.8 ± 824.9 ng·h/mL, the Cmax amounted to 442.2 ± 20.8 ng/mL, the Half-life was found to be 16.5 ± 6.3 h and the Tmax was 10 h. In data set [1] (GLP-2-Fc ELISA (Table 6)), the AUClast worked out at 78639.0 ± 11205.3 ng·h/mL, the maximum concentration (Cmax) is listed as 1136.7 ± 261.0 ng/mL, the Half-life was 43.7 ± 1.8 h and the time of peak concentration (Tmax) is 24.0 ± 0.0 h. In addition, in the data set with B6 normal mice [2], the small intestine weight entry was “greater increase in small intestine weight than the GLP-2-Fc homodimer administered group; also recorded: superior effect of increasing small intestine weight” and the “weight change before autopsy (body weight)” value is “numerical increase in body weight”. Moreover, in the data set with B6 normal mice [3] (setting [4]), the “Average fluorescence intensity, Brain” value worked out at 489; the “Average fluorescence intensity, Large intestine” value turned out to be 3702; the “Average fluorescence intensity, Small intestine” value is given as 7320. Further, the “distribution in the small intestine and the large intestine” value in the data set with B6 normal mice [3] (compared to GLP-1-Fc homodimer) is listed as “larger”. Moreover, in the data set on Balb/c-nude mice, the “distribution to the liver (SUV)” value is “reduced or showed no difference compared to Fc”; the “distribution to the small intestine and large intestine (SUV)” value was “significantly high compared to that of GLP-1-Fc homodimer and GLP-2-Fc homodimer”. In addition, in the data set with GLP-1 receptor, the “activity reduced due to glycosylation” value is “about 11 times”.
